Results: article PMC5988349 (Nature, 2018)
Blank lines part the entries; values can stand above or below the binder they belong to.

Columns and labels:
[1] = molecular target: the molecule itself; assay: cryo-EM structure
[2] = molecular target: β-actin subunit of pig dynactin (pig (endogenous in pig brain), UniProt Q6QAQ1 1-375); assay: cryo-EM structure

B1: BICDR1 (BICD related-1), as used for the cryo-EM of TDR (natural protein)
chain: MSAFCLGLAGRASAPAEPDSACCMELPAGAGDAVRSPATAAALVSFPGGPGELELALEEELALLAAGERSSEPGEHPQAEPESPVEGHGPPLPPPPTQDPELLSVIRQKEKDLVLAARLGKALLERNQDMSRQYEQMHKELTDKLEHLEQEKHELRRRFENREGEWEGRVSELETDVKQLQDELERQQLHLREADREKTRAVQELSEQNQRLLDQLSRASEVERQLSMQVHALKEDFREKNSSTNQHIIRLESLQAEIKMLSDRKRELEHRLSATLEENDLLQGTVEELQDRVLILERQGHDKDLQLHQSQLELQEVRLSYRQLQGKVEELTEERSLQSSAATSTSLLSEIEQSMEAEELEQEREQLRLQLWEAYCQVRYLCSHLRGNDSADSAVSTDSSMDESSETSSAKDVPAGSLRTALNDLKRLIQSIVDGVEPTVTLLSVEMTALKEERDRLRVTSEDKEPKEQLQKAIRDRDEAIAKKNAVELELAKCKMDMMSLNSQLLDAIQQKLNLSQQLEAWQDDMHRVIDRQLMDTHLKEQSRPAAAAFPRGHGVGRGQEPSTADGKRLFSFFRKI
- binding result [1]: binds

- binding result [2]: binds
B2: dynein heavy chain (HC) residues 1-1455 (domain or fragment)
chain: MSEPGGGGGEDGSAGLEVSAVQNVADVSVLQKHLRKLVPLLLEDGGEAPAALEAALEEKSALEQMRKFLSDPQVHTVLVERSTLKEDVGDEGEEEKEFISYNINIDIHYGVKSNSLAFIKRTPVIDADKPVSSQLRVLTLSEDSPYETLHSFISNAVAPFFKSYIRESGKADRDGDKMAPSVEKKIAELEMGLLHLQQNIEIPEISLPIHPMITNVAKQCYERGEKPKVTDFGDKVEDPTFLNQLQSGVNRWIREIQKVTKLDRDPASGTALQEISFWLNLERALYRIQEKRESPEVLLTLDILKHGKRFHATVSFDTDTGLKQALETVNDYNPLMKDFPLNDLLSATELDKIRQALVAIFTHLRKIRNTKYPIQRALRLVEAISRDLSSQLLKVLGTRKLMHVAYEEFEKVMVACFEVFQTWDDEYEKLQVLLRDIVKRKREENLKMVWRINPAHRKLQARLDQMRKFRRQHEQLRAVIVRVLRPQVTAVAQQNQGEVPEPQDMKVAEVLFDAADANAIEEVNLAYENVKEVDGLDVSKEGTEAWEAAMKRYDERIDRVETRITARLRDQLGTAKNANEMFRIFSRFNALFVRPHIRGAIREYQTQLIQRVKDDIESLHDKFKVQYPQSQACKMSHVRDLPPVSGSIIWAKQIDRQLTAYMKRVEDVLGKGWENHVEGQKLKQDGDSFRMKLNTQEIFDDWARKVQQRNLGVSGRIFTIESTRVRGRTGNVLKLKVNFLPEIITLSKEVRNLKWLGFRVPLAIVNKAHQANQLYPFAISLIESVRTYERTCEKVEERNTISLLVAGLKKEVQALIAEGIALVWESYKLDPYVQRLAETVFNFQEKVDDLLIIEEKIDLEVRSLETCMYDHKTFSEILNRVQKAVDDLNLHSYSNLPIWVNKLDMEIERILGVRLQAGLRAWTQVLLGQAEDKAEVDMDTDAPQVSHKPGGEPKIKNVVHELRITNQVIYLNPPIEECRYKLYQEMFAWKMVVLSLPRIQSQRYQVGVHYELTEEEKFYRNALTRMPDGPVALEESYSAVMGIVSEVEQYVKVWLQYQCLWDMQAENIYNRLGEDLNKWQALLVQIRKARGTFDNAETKKEFGPVVIDYGKVQSKVNLKYDSWHKEVLSKFGQMLGSNMTEFHSQISKSRQELEQHSVDTASTSDAVTFITYVQSLKRKIKQFEKQVELYRNGQRLLEKQRFQFPPSWLYIDNIEGEWGAFNDIMRRKDSAIQQQVANLQMKIVQEDRAVESRTTDLLTDWEKTKPVTGNLRPEEALQALTIYEGKFGRLKDDREKCAKAKEALELTDTGLLSGSEERVQVALEELQDLKGVWSELSKVWEQIDQMKEQPWVSVQPRKLRQNLDALLNQLKSFPARLRQYASYEFVQRLLKGYMKINMLVIELKSEALKDRHWKQLMKRLHVNWVVSELTLGQIWDVDLQKNEAIVKDVLLVAQG
- binding result [1]: binds
